Test: soluble on expression in E. coli; label from the status in PepcDB or PDB records

Sequence	soluble on expression in E. coli
MQEDDSVKPFQTVGAHRDLIHCVSFDPHGRRMATCASDMTMAIWDRKPDGNWRRSAHWKCHGGAVWRVIWAHPEFGQIVATCSYDRTIVIWEEQIVRSEKDLKQKESQWIRRTIISDNRSDVTDICFSPRHLGLMMASCNVLGTVRIYEAPDIVDASRWNLIHELQAFHTRCGCVTWSLSRMHRPLIAVGSDEKKAENKKRVVIYENIDGLRKWQRINSLVFDLPCPITDLKFSPISMVDSHQLAVASGDVHVYNIKVARSAILEEDGVENPIQLADYNLIKVALLGDHRKAWRLRYNLMGSVISSTSLDGTLRSWKSLFVNQWVKLSEMNVDDYVPSPEEVRAFISSKTTERLPSQLEKTYF	not soluble
MDRSAEFRKWKAQCLSKADLSRKGSVDEDVVELVQFLNMRDQFFTTSSCAGRILLLDRGINGFEVQKQNCCWLLVTHKLCVKDDVIVALKKANGDATLKFEPFVLHVQCRQLQDAQILHSMAIDSGFRNSGITVGKRGKTMLVVRSTHGLEVPLSHKGKLMVTEEYIDFLLNVANQKMEENKKRIERFYNCLQHALERETMTNLHPKIKEKNNSSYIHKKKRNPEKTRAQCITKESDEELENDDDDDLGINVTIFPEDY	not soluble
ETELAFLYERDIYRLLAECDNSRNPDLGLIVRICLATGARWSEAETLTQSQVMPYKITFTNTKSKKNRTVPISDELFDMLPKKRGRLFNDAYESFENAVLRAEIELPKGQLTHVLRHTFASHFMMNGGNILVLKEILGHSTIEMTMRYAHFAPSHLESAVKFNPLSNPAQ	soluble
MQEKTTESRILDATGRPFKVREAKELQTDDVRLAGLHRTFSNHPSSGLTPASAASILLSAEQGDLIAQCELAEDIEEKDGHLFAELDKRKRALIGVDYYLEPPSNPTPQEKADTEYLQQMLEEGGWIKSLIKSIADAILKGFSMHELAWSRELGEWFVEVPEYRDPSWFMTHPERRNELRLRDSTHEGAELWPFGWIKHIHPAKSGYVSRSGLVRQLIWPFIFKNYSVRDLAEFLEIYGLPLRIGQYPAGASDGEKRALLNAVMSIGHNAGGIMPKGMVMDFHSAATGQADPFELMMTWAEKTMSKVILGGTLTTQADGKSSTNALGNVHNEVRQELRDADLALVAETLTRDLIAPLYALNCKSYRSHRRHPRLVFDTTEAEDLRALAYPLRAFVSMGMQIPQNWLHEKTRIPKPANGEAVLVIQQDDPNATAASQTALAALSAKEGAAKQPDASLNEPSQTALDKALDALTQGQMSEAYMGMVEPLLAQLQSEPEQLRAQLEQNYPNMDTEQLTETLARLMFVAELWGMANA	not soluble
MANMTFSLPDPMKDWIESRIQKGEYASASDYVRDLVRRDWARRGQDFSIDELRQIVAESRASGVGSRSMDDLFAEAERVATAHGVMRE	not soluble
MGSRENLYFQGLEHHHHHHHMKIISKMLVGALALAVTNVYAAELMTKAEFEKVESQYEKIGDISTSNEMSTADAKEDLIKKADEKGADVLVLTSGQTDNKIHGTANIYKKK	soluble
MSLTNKHPSLFSPFMLTEKIKLRNRIVMAPMTTWSANPDGTISEQELEFYKRRSQNVGLVITGCTYVTPSGIGFTHEFAAYDDRFINSLEKLAAAAKSGGAPAILQIFHAGNKAIPELVPNNDVISASASSVKSGDFMKRVVQSREMTENEIQETIRAFGDVTKRAIKAGFDGIELHGAHGFLLQNFFSPLFNQRNDRWGGDLEGRMRFPLAVLQEVKNVVYEYATKPFAIGYRISPEESATGGLRIEDTYKLLDRLISSGISYIHTSLVSINDSYPVESPNGPRTIELILNHIAGRVPVIAAGKIRTPSQAQEAISTGLPLVAIGKGLVINPEWVTLAESGRGHEIQTTLNPQLVPELTIPDKLWDQIQASKGEGHHHHHH	soluble
MSLSESAPTPRRERVIVGMSGGVDSSVSALLLLQQGYQVEGLFMKNWDEDDGTEYCTAREDLADAQAVCDRIGIKLHTANFAAEYWDNVFEHFLAEYKAGRTPNPDILCNREIKFKAFLDYALMLGADLIATGHYVRRRDRDGRTELLKGLDPNKDQSYFLHAVGGEQIARSLFPVGELEKPEVRAIAEKHGLATAKKKDSTGICFIGERRFTDFLKQYLPAQPGDIETTEGKVIGRHSGLMYHTIGQRQGLGIGGLKEAGDDPWYVLGKDLQRNVLLVGQGNDHPLLFSRALLASRIYWVNPVELERPRRLRAKVRYRQSDQDCVLEKTAEGYRAVFDEPQRAVTPGQSVVFYDGDVCLGGGVIETAEAWDFGGRPEGHHHHHH	soluble
MAHHHHHHMMAIRNMLRKIIIKHGKVANAVWVPKRFINMNPTGNEEKVTQERNKRDYILSLDEALYLSKEMGIKTTTEIQKIIMRSPPFSPDMSPFLIDNFLSSANKDRHSDEIDQIDLKLKELQERDSNPEESEQGEDEGAVENSKINISHDREENIINKILIDKFNKKRGKTFIHNDMEWLEESEGIGTNKRSCAYVYIKRGSGIVKVNDEEDLYIRWPYFYNRMDVLEPFYVTNTSCVFDVFIKLKGGGISGQSKAARLAIGRALLNACPLIYDDLQQHHILYEDMRQKFPKMPGRKKSRAMKQWSKR	not soluble
MADEALFLLLHNEMVSGVYKSAEQGEVENGRCITKLENMGFRVGQGLIERFTKDTARFKDELDIMKFICKDFWTTVFKKQIDNLRTNHQYLAFTCGLIRGGLSNLGIKSIVTAEVSSMPACKFQVMIQKL	not soluble
MLSVENLKVVYRGVILALDGVSLEVGEGEAVALLGPNGAGKSSLVRTIAGLLPKFEGRVLDGKVRLFGREATHLDPVGISRLGLTAILEGRPLFRYLTPVENLMAAGHRLPPKALKEGMEEVFARFPRLYERRHEQAGYLSGGEQQMLLLGMALLTRPRLLVVDEPSLGLAPKLVGEVMQTLDALRREKGLSLLLVEQNARAALGVVDRVYVLERGRVVFEGSAKEAMEDQDVMEFYLGKEEVGFRQARRYRRRKRWV	soluble
MGHHHHHHSHAAAIAGAKLRKVSRMEDTSFPSGGNAIGVNSASSKTDTGRGNGPLPLGGSGLMEEMSALLARRRRIAEKGSTIETEQKEDKGEDSEPVTSKASSTSTPEPTRKPWERTNTMNGSKSPVISRPKSTPLSQPSANGVQTEGLDYDRLKQDILDEMRKELTKLKEELIDAIRQELSKSNTA	soluble
MPMDSYEKRGYLDREFRLFHLSACLPGDISYHYHDFDKILIFLRGDVDYVIEGRSYHLNPYDIVLVGHHSIHKPLLRSGDVYERIVVYLSPGYVDSFRTENCDLSRCFKDAREHCSDVLRISSLKISSLYESLIRLEKACREDGYAKELYCRILFLEFMIHLNRAASGSHLEYVSTSPSSEKVLEIMRYISENPSADFTIDSLASRFFLSKFHMMRLFKQETGYTINSYINEKRLLMAKELLGRNLPVTEVCFRCGFRNYAAFLRAYKKNFGENPKSGKRPEGRTSVDNLHAPRTEHRLQKKPLSK	not soluble
MARETHDREDLLLEGVNLPERARLLHRASGREWVIGWRTGGGAAFYDGPDRVYQFNADNQLRRVYLDGSKLAAEGGRLCELRRPEPTNPDGSAGDRTQKVKLVWQPIDSAIQRNVLEQWAETRQQLLTALELFRERDLPNVTIASTAPDGSNSSLSTQPSIYSWESVGIDAFEMLDRTSGWLVSITDNPEIAAQPNA	soluble
MDSDSGEQSEGELSPGHESFNSKSLALQAQKKILSKMATMAVANLLTDDTSSEILDELYKASREYTKSKKEAHKIIKDVIKIALKIGILYRNHQFSPEEMETVERFKKKMNQAAMTVVSFYEVEYTFDRGILSELLLECRDLLHELVEHHLTMRSHGRIDHVFNHFADVDFLTELYGPSEDYRLNLRKICDGINKLLDEGTL	not soluble
GPGSMGIIKHVAVILDVSEASLEQHVLERVRQLDEDTVVRRLSEEKAGKLPDFIKLSEDIIEKNDLRKSGEGSVESIQRFVCFVTDNKTRQNGMVAYAMHCLQIPVLSLTKGQKAKGNDDAEHWVSTILYKDLDGSHTDPLAAVNEFFTFPDKVGELLAVEGRDSQLTLQYCRELRSYLQRAWSAEVKLVGPNGCDMSEEGLDGTKCGETDNVEEQVEVESGIHAPLVKELLGNSQLESTHQNDHLLHGAMYALNRHENLPIIRYRLQRGVNIILCRPMSSSLEKLFNKFSRMRGGAEDVRRSFIDAVKSLLQFEGRWLDMPRRRVVLIREGVAHSWSAWLGNEVIHPLVDWIPVDVKAGNIADHCASLEASVKKAVRRLSR	soluble

From the DeepSol protein solubility set
